Assay results published in patent CN116178530A (SHANGHAI JUNSHI BIOSCIENCES CO LTD; JUNMENG BIOSCIENCES CO …, dated 2023).

Legend:
[1] = target: SARS-CoV-2的Alpha突变株(B.1.1.7)假病毒的刺突蛋白 (SARS-CoV-2, UniProt P0DTC2 14-1273); test: cell-based or functional assay
[2] = target: SARS-CoV-2的Gamma突变株(P.1)假病毒的刺突蛋白 (SARS-CoV-2, UniProt P0DTC2 14-1273); test: cell-based or functional assay
[3] = target: SARS-CoV-2的Delta突变株(B.1.617.2)假病毒的刺突蛋白 (SARS-CoV-2, UniProt P0DTC2 14-1273); test: cell-based or functional assay
[4] = target: SARS-CoV-2的Beta突变株(B.1.351)假病毒的刺突蛋白 (SARS-CoV-2, UniProt P0DTC2 14-1273); test: cell-based or functional assay
[5] = target: SARS-CoV-2的Kappa突变株(B.1.617.1)假病毒的刺突蛋白 (SARS-CoV-2, UniProt P0DTC2 14-1273); test: cell-based or functional assay
[6] = target: Alpha突变株RBD蛋白(货号SPD-C82E6，ACRO Biosystems) (SARS-CoV-2, UniProt P0DTC2 319-537)
[7] = target: Kappa突变株RBD蛋白(货号SPD-C82Ec，ACRO Biosystems) (SARS-CoV-2, UniProt P0DTC2 319-537)
[8] = target: Beta突变株RBD蛋白(货号SPD-C82E5，ACRO Biosystems) (SARS-CoV-2, UniProt P0DTC2 319-537)
[9] = target: Gamma突变株RBD蛋白(货号SPD-C82E7，ACRO Biosystems) (SARS-CoV-2, UniProt P0DTC2 319-537)
[10] = target: Delta突变株RBD蛋白(货号SPD-C82Ed，ACRO Biosystems) (SARS-CoV-2, UniProt P0DTC2 319-537)
[11] = target: Epsilon突变株RBD蛋白(货号SPD-C82E3，ACRO Biosystems) (SARS-CoV-2, UniProt P0DTC2 319-537)

B1: JS5-10 (antibody, human IgG1, kappa, L234A L235A, V domains shown)
VH: EVQLLESGGGLVQPGGSLRLSCAASGFTFSSYAMSWVRQAPGKGLEWVSAIVGSGGSTYYADSVKGRFIISRDNSKNTLYLQMNSLRAEDTAVYYCAKSLIYGHYDILTGAYYFDYWGQGTLVTVSS
VL: DIQMTQSPSSVSASVGDRVTIPCRASQGIGNWLAWYQQKPGKAPKLLIYAASSLQSGVPSRFSGSGSGTDFTLTISSLQPEDFATYYCQQANSFPPFGQGTRLEIKR
[1]
  假病毒中和 IC50 (荧光素酶报告基因, 293-ACE2细胞): 1.18 ng/mL
[2]
  假病毒中和 IC50 (荧光素酶报告基因, 293-ACE2细胞): 0.449 ng/mL
[3]
  假病毒中和 IC50 (荧光素酶报告基因, 293-ACE2细胞): 5.56 ng/mL
[4]
  假病毒中和 IC50 (荧光素酶报告基因, 293-ACE2细胞): 8.47 ng/mL
[5]
  假病毒中和 IC50 (荧光素酶报告基因, 293-ACE2细胞): 5.4 ng/mL
[6]
  Kd: 1.3 nM
  koff: 0.000316 s⁻¹
  kon: 243000 M⁻¹ s⁻¹
[7]
  Kd: 0.875 nM
  koff: 0.000172 s⁻¹
  kon: 196000 M⁻¹ s⁻¹
[8]
  Kd: 0.88 nM
  koff: 0.000176 s⁻¹
  kon: 201000 M⁻¹ s⁻¹
[9]
  Kd: 1.12 nM
  koff: 0.000241 s⁻¹
  kon: 216000 M⁻¹ s⁻¹
[10]
  Kd: 0.73 nM
  koff: 0.000161 s⁻¹
  kon: 220000 M⁻¹ s⁻¹
[11]
  Kd: 1.17 nM
  koff: 0.000226 s⁻¹
  kon: 193000 M⁻¹ s⁻¹
